{"source": "patent US20230242646A1", "about": "(JJP BIOLOGICS SP Z O O, published 2023)", "key": {"[1]": {"molecular_target": "T1, membrane-bound full-length human CD89 on HEK293F cells (human, UniProt P24071 22-287)", "T1 construct": "2 or transient transfectants; also called membrane human CD89; human FcaRI", "test": "FACS HEK293F-huCD89", "experimental": "After extensive washing in PBS/BSA/NaN₃, cells were subsequently incubated with 1:200 diluted PE-conjugated goat anti-human IgG Fcy-specific antibodies (Jackson ImmunoResearch) for 30 minutes at 4° C. After extensive washing in PBS/BSA/NaN₃, cells were fixed in 2% formaldehyde in PBS/BSA/NaN₃ for 30 minutes at 4° C."}, "[2]": {"molecular_target": "T2, recombinant C-terminal polyhistidine-tagged human (extracellular) CD89 (Sino Biological) (human, UniProt P24071 22-227)", "T2 construct": "extracellular domain; bought protein; also called rhuCD89; soluble monomeric rhuCD89", "test": "ELISA, coated rhuCD89", "experimental": "After extensive washing with PBS/0.05% Tween 20, plates were blocked with PBS/0.05% Tween 20/1% BSA (Roche) for 1 hour at RT. Subsequently, plates were incubated with 50 µL titrated (in block buffer) purified mouse anti-human CD89 antibody/well for 1 hour at RT. […] After extensive washing in PBS/0.05% Tween 20, binding of antibodies on rhuCD89 was determined with 1:5,000 diluted horseradish peroxidase (HRP)-conjugated goat anti-mouse IgG Fcy-specific antibodies (Jackson ImmunoResearch) for 1 hour at RT, followed by a ready-to-use solution of TMB substrate (Invitrogen) for colorimetric detection.\nAfter extensive washing with PBS/0.05% Tween 20, plates were blocked with PBS/0.05% Tween 20/1% BSA (Roche) for 1 hour at RT. […] After extensive washing in PBS/0.05% Tween 20, binding of antibodies on rhuCD89 was determined with 1:5,000 diluted horseradish peroxidase (HRP)-conjugated goat anti-human IgG Fcy-specific antibodies (Jackson ImmunoResearch) for 1 hour at RT, followed by a ready-to-use solution of TMB substrate (Invitrogen) for colorimetric detection."}, "[3]": {"molecular_target": "membrane human CD89 on ex vivo primary human neutrophilic granulocytes or monocytic U937 cells (human, UniProt P24071 22-287)", "test": "cell-based or functional assay"}, "[4]": {"molecular_target": "T1, membrane-bound full-length human CD89 …", "test": "FACS HEK293F-huCD89, 10 ug/mL; competitor PE-A3", "experimental": "(§1) Then, 10 µL/tube (i.e., 0.1 × 10⁶ cells) of these cells were incubated with or without 100 µL purified mouse anti-human CD89 antibody at 10 µg/mL (in PBS/BSA/NaN₃) for 30 minutes at 4° C. […] After extensive washing in PBS/BSA/NaN₃, cells were fixed in 2% formaldehyde in PBS/BSA/NaN₃ for 30 minutes at 4° C."}, "[5]": {"molecular_target": "T1, membrane-bound full-length human CD89 …", "test": "FACS HEK293F-huCD89, 10 ug/mL; competitor PE-A59", "experimental": "as §1"}, "[6]": {"molecular_target": "T1, membrane-bound full-length human CD89 …", "test": "FACS HEK293F-huCD89, 10 ug/mL; competitor PE-MIP8a", "experimental": "as §1"}, "[7]": {"molecular_target": "T3, chimeric bovine EC1-Fcgamma2R/human EC2-CD89 on HEK293F cells (bovine/human chimera)", "T3 chain": "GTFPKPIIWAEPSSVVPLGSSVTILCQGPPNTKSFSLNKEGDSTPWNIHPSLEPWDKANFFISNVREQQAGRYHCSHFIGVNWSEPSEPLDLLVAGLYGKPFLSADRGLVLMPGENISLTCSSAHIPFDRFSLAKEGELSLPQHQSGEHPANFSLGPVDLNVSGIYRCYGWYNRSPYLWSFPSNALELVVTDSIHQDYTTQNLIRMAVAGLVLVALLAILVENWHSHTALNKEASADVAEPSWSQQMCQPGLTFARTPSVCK", "test": "FACS, transiently transfected HEK293F", "experimental": "(§2) To this end, transient transfected HEK293F cells were put at 10 × 10⁶ cells/mL in ice-chilled phosphate-buffered saline containing 0.1% BSA (Sigma)/0.05% NaN₃ (PBS/BSA/NaN₃) supplemented with 50 µg/mL human IgGs (blocking Fcy receptors; Sigma) for 10 minutes at 4° C. Then, 10 µL/tube (i.e., 0.1 × 10⁶ cells) of these cells were incubated with or without 100 µL purified mouse anti-human CD89 antibody at 10 µg/mL (in PBS/BSA/NaN₃) for 30 minutes at 4° C. […] After extensive washing in PBS/BSA/NaN₃, cells were subsequently incubated with 1:200 diluted PE-conjugated goat anti-mouse IgG Fcy-specific antibodies (Jackson ImmunoResearch) for 30 minutes at 4° C. After extensive washing in PBS/BSA/NaN₃, cells were fixed in 2% formaldehyde in PBS/BSA/NaN₃ for 30 minutes at 4° C."}, "[8]": {"molecular_target": "T4, membrane full-length bovine Fcgamma2R on HEK293F cells (bovine)", "T4 construct": "also called bovine Fcy2R", "T4 chain": "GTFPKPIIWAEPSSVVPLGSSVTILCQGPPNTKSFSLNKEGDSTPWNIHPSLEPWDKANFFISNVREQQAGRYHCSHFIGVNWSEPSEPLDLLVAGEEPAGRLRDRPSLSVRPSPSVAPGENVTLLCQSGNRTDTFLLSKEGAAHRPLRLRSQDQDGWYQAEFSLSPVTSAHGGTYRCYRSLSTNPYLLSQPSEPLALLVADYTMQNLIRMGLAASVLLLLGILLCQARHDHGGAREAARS", "test": "FACS, transiently transfected HEK293F", "experimental": "as §2"}, "[9]": {"molecular_target": "T5, chimeric human/cynomolgus monkey CD89-hotspots on HEK293F cells (human/cynomolgus chimera, UniProt P24071 22-287)", "T5 construct": "also called dThr58, Gln59; dArg73, Arg74, Lys76", "T5 chain": "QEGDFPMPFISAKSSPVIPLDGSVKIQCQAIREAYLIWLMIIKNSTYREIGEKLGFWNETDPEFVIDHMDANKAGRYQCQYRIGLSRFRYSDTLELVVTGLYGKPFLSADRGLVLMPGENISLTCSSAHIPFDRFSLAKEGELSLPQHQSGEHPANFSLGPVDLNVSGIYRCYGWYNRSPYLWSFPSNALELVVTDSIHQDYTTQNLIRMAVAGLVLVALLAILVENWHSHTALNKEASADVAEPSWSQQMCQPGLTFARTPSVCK", "test": "FACS, transiently transfected HEK293F", "experimental": "(§3) To this end, transient transfected HEK293F cells were put at 10 × 10⁶ cells/mL in ice-chilled phosphate-buffered saline containing 0.1% BSA (Sigma)/0.05% NaN₃ (PBS/BSA/NaN₃) supplemented with 50 µg/mL human IgGs (blocking FcY receptors; Sigma) for 10 minutes at 4° C. Then, 10 µL/tube (i.e., 0.1 × 10⁶ cells) of these cells were incubated with or without 100 µL purified mouse anti-human CD89 antibody at 10 µg/mL (in PBS/BSA/NaN₃) for 30 minutes at 4° C. […] After extensive washing in PBS/BSA/NaN₃, cells were subsequently incubated with 1:200 diluted PE-conjugated goat anti-mouse IgG Fcy-specific antibodies (Jackson ImmunoResearch) for 30 minutes at 4° C. After extensive washing in PBS/BSA/NaN₃, cells were fixed in 2% formaldehyde in PBS/BSA/NaN₃ for 30 minutes at 4° C."}, "[10]": {"molecular_target": "T6, chimeric human EC1-CD89/bovine EC2-Fcgamma2R (bovine TM and IC) on HEK293F cells (human/bovine chimera)", "T6 construct": "also called human EC1-CD89 (version with bovine transmembrane-intracellular region)", "test": "FACS, 10 µg/mL, transiently transfected HEK293F", "experimental": "as §2"}, "[11]": {"molecular_target": "T7, chimeric human EC1-CD89/bovine EC2-Fcgamma2R (human TM and IC) on HEK293F cells (human/bovine chimera)", "T7 construct": "also called human EC1-CD89 (version with human transmembrane-intracellular region)", "test": "FACS, 10 µg/mL, transiently transfected HEK293F", "experimental": "as §2"}, "[12]": {"molecular_target": "T8, chimeric human/cynomolgus monkey CD89-I on HEK293F cells (human/cynomolgus chimera, UniProt P24071 22-287)", "T8 construct": "also called dGln22 - Lys46 human EC1-CD89; I (22-46)", "T8 chain": "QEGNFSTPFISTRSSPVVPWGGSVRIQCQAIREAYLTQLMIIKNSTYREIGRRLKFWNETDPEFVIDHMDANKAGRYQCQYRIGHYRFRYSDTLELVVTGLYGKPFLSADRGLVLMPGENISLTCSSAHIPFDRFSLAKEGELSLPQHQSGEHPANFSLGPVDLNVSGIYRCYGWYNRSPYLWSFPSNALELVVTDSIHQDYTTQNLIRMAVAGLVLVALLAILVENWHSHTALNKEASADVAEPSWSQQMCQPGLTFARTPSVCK", "test": "FACS, 10 µg/mL, transiently transfected HEK293F", "experimental": "as §3"}, "[13]": {"molecular_target": "T9, chimeric human/cynomolgus monkey CD89-IV on HEK293F cells (human/cynomolgus chimera, UniProt P24071 22-287)", "T9 construct": "also called dArg97 - Gly121 human EC1-CD89", "T9 chain": "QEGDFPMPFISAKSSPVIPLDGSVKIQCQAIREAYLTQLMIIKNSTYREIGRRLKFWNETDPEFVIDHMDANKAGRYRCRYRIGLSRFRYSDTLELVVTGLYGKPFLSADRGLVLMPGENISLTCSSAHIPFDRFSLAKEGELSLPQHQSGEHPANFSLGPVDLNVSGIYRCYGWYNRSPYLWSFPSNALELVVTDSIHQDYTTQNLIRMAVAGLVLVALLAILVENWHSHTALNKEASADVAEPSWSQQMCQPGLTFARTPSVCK", "test": "FACS, 10 µg/mL, transiently transfected HEK293F", "experimental": "as §3"}, "[14]": {"molecular_target": "T1, membrane-bound full-length human CD89 …", "test": "FACS, antibody before secretory IgA on HEK293F-huCD89; IgA detected"}, "[15]": {"molecular_target": "T2, recombinant C-terminal …", "test": "BLI (Octet RED96), biotinylated Ab on streptavidin tips, rhuCD89 analyte, 1:1 model", "experimental": "Equilibrium dissociation constants (KD) were determined using a 1:1 Langmuir binding model in Octet® RED96 software (ForteBio)."}}, "data": [{"binder": "CD89/IgA blocking mouse anti-human CD89-specific antibody 10E7 (antibody, V domains shown, biotinylated in the Octet assay; also called mouse 10E7) VH: EVQLVESGGGLVQPGGSLKLSCAASGLTFSSYGMSWVRQTPDKRLELVATINGNGDITYYPDSVKGRFTISRDNAKNTLYLQMSSLKSEDTAMYYCARDYDYDYAMDYWGQGTSVTVSS VL: DIQMTQSTSSLSASLGDSVTISCRASQDIINYLNWYQQKPDGTVKLLIYYTSRLHSGVPSRFSGSGSGTEYSLTVSNLEKEDIATYFCQQGKTLPYTFGGGTKLEIK", "values": [{"measurement": "EC50", "setting": "[1]", "value": 0.637, "unit": "µg/mL"}, {"measurement": "EC50", "setting": "[2]", "value": 0.02, "unit": "µg/mL"}, {"measurement": "IC50 (read off the bars), binding of granulocytes to plate-bound serum IgA [Donor 2]", "setting": "[3]", "value": "~0.4", "unit": "µg/mL"}, {"measurement": "% blocking of PE-A3 binding", "setting": "[4]", "value": "< 25", "unit": "%"}, {"measurement": "% blocking of PE-A59 binding", "setting": "[5]", "value": "< 25", "unit": "%"}, {"measurement": "% blocking of PE-MIP8a binding", "setting": "[6]", "value": "< 25", "unit": "%"}, {"measurement": "binding result", "setting": "[7]", "value": "no binding (tested: 10 µg/mL)"}, {"measurement": "binding result", "setting": "[8]", "value": "no binding (tested: 10 µg/mL)"}, {"measurement": "binding result", "setting": "[9]", "value": "no binding (tested: 10 µg/mL)"}, {"measurement": "binding result", "setting": "[10]", "value": "binds"}, {"measurement": "binding result", "setting": "[11]", "value": "binds"}, {"measurement": "binding result", "setting": "[12]", "value": "binds"}, {"measurement": "binding result", "setting": "[13]", "value": "binds"}, {"measurement": "IC50 (read off the curve)", "setting": "[14]", "value": "~1", "unit": "µg/mL"}, {"measurement": "Kd", "setting": "[15]", "value": 1.67, "unit": "nM"}, {"measurement": "koff", "setting": "[15]", "value": 0.00111, "unit": "s⁻¹"}, {"measurement": "kon", "setting": "[15]", "value": 687000, "unit": "M⁻¹ s⁻¹"}]}]}
